In patent US20180215829A1 (CRESCENDO BIOLOGICS, published 2018):
Where two headings read alike, the source gives them in different places.

Key:
[1] = target: T1, IL-17RB (UniProt Q9NRM6 18-289, limits assumed); test: specificity ELISA, antigen coated, anti-His-HRP detection
T1 sequence (looked up): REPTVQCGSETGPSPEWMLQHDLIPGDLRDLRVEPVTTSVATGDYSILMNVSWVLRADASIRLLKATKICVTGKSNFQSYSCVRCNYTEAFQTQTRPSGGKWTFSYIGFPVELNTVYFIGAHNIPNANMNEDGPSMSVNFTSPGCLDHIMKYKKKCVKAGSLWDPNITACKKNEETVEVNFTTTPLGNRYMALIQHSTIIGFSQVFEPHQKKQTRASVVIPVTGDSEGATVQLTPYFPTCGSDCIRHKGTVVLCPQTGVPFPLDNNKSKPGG
Description: (§1) The binding ELISA for crude or purified VH was similar to the serum ELISA and phage ELISA, previously described, mostly differing in the final detection steps. Briefly, antigen was immobilised on maxisorb plates (Nunc 443404) by adding 50 ul volumes at 0.1-1 ug/ml in PBS and incubating at 4° C. overnight. Following coating, the antigen solution was aspirated and the plates were washed using PBS (prepared from PBS tablets, Oxoid cat no. BR0014G) supplemented with 0.05% Tween® 20 (sigma P1379), followed by washes with PBS without added Tween®. To block non-specific protein interactions, a solution of 3% skimmed milk powder (Marvel) in PBS was added to the wells and the plate was incubated for at least one hour at room temperature. Dilutions of periplasmic extract or purified VH in 3% Marvel/PBS were prepared in polypropylene tubes or plates and incubated for at least one hour at room temperature prior to transfer to the blocked ELISA plate where a further incubation of at least one hour took place. Unbound protein was then washed away using repetitive washes with PBS/Tween® followed by PBS. A solution of HRP-conjugated anti-His Ab (Miltenyi Biotec, 130-092-785), prepared at 1:1000 dilution in PBS/3% Marvel was then added to each well and a further incubation at room temperature for at least one hour took place. Unbound detection antibody was removed by repeated washing using PBS/Tween® and PBS. The ELISA was then developed using TMB substrate (Sigma cat. no. T0440) and the reaction was stopped after 10 minutes by the addition of 0.5M H₂SO₄ solution (Sigma cat. no. 320501). Absorbances were determined by reading at 450 nm.

[2] = target: T2, IL-17RD (UniProt Q8NFM7 17-299, limits assumed); test: as above
T2 sequence (looked up): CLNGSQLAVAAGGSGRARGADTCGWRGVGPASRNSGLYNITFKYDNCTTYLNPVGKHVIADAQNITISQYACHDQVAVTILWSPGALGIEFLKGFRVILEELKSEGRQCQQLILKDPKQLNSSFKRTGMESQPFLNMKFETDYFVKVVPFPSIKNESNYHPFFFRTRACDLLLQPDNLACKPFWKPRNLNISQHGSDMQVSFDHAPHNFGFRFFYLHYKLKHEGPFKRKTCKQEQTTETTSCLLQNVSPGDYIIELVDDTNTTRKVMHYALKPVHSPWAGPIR
Description: as §1

[3] = target: T3, human IL-17RA on HT1080 cells (human, UniProt Q96F46 33-866); test: cell-based or functional assay
T3 sequence: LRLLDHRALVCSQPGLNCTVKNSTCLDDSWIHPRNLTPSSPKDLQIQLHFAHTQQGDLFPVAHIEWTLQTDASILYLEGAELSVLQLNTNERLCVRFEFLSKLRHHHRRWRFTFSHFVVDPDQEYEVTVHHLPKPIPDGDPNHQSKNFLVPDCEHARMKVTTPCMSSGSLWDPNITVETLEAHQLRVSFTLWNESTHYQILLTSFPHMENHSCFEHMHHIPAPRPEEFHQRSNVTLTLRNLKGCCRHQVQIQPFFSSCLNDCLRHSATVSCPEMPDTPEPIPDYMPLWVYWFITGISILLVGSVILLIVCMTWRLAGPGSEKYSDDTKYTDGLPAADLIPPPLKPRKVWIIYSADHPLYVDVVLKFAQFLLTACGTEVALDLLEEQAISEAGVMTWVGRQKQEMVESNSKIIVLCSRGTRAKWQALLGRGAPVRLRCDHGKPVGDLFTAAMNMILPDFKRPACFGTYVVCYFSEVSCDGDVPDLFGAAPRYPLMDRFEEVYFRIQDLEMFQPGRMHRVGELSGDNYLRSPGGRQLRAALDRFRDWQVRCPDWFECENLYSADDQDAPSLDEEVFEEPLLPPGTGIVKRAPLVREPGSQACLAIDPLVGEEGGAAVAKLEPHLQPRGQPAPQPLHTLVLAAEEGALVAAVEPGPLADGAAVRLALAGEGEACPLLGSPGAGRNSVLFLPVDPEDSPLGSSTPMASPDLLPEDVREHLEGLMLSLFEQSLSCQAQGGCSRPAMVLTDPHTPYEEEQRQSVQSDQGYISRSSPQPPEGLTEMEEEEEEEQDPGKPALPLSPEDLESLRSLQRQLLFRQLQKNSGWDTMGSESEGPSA

[4] = target: T4, recombinant human IL-17RA Fc fusion protein (R&D Systems 177-IR-100) (human, UniProt Q96F46 33-320); test: BIAcore T200 single-cycle kinetics, IL-17RA-Fc captured on protein G chip, VH as analyte
T4 construct: Bought protein; not shown: Fc domain of human IgG1
T4 sequence: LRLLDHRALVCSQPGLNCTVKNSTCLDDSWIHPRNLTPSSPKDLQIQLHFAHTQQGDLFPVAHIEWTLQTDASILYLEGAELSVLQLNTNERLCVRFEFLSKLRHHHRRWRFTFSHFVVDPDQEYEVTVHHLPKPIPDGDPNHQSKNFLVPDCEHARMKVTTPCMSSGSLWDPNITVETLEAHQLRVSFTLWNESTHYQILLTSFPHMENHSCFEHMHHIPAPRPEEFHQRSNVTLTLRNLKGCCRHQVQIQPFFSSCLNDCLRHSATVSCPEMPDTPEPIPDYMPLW
Description: (§2) Binding kinetics of anti-IL-17RA VH antibodies were measured on a BIAcore® T200 instrument. For IL-17RA, first a protein G chip was prepared by diluting protein G to 20 ug/ml in acetate buffer, pH 4 (BIAcore®, cat# BR-100-49) and then coupled 1200 RU to a CM5 Series S chip using amine coupling chemistry. This surface was then used to capture IL-17RA Fc fusion protein from solution: IL-17RA at 10 ug/ml in HBS injected for 10 seconds at 30 ul/min flow rate would capture approximately 100-150 RU of IL-17RA onto the protein G surface.
(§3) Binding kinetics of anti-IL-17RA VH antibodies were determined by single-cycle kinetics. VH antibodies were prepared in dilution series (typically 1:3 dilution series starting with 100 nM VH at the highest concentration), and then injected over the antigen coated surfaces and also a blank surface, starting with the lowest concentration of VH and then working progressively up to the highest concentration. VH binding kinetics were then determined from the (blank subtracted) sensorgram traces using 1:1 binding models and BIAevaluation software.

[5] = target: T3, human IL-17RA on HT1080 cells; test: cell-based or functional assay; remark: listed apart in the source
[6] = target: T4, recombinant human IL-17RA Fc fusion …; test: receptor/ligand biochemical inhibition ELISA: VH competes with 1 nM IL-17A for coated IL-17RA-Fc
Description: (§4) VH, both purified and crude periplasmic extracts, were also tested for their ability to inhibit the interaction of IL-17A with recombinant IL-17RA-Fc. […] Following washing of excess coating antigen, as described above, the wells of the plate were incubated with 3% Marvel/PBS to block non-specific protein interactions. VH preparations, crude periplasmic extracts or purified VH, or suitable controls, were prepared with 1 nM recombinant IL-17A (Peprotech, cat# AF-200-17) in 3% skimmed milk powder/PBS solution in polypropylene plates or tubes. The mixture was then transferred to the assay plate and incubated for 1 hour at room temperature. Excess protein was removed by washing and bound IL-17A was detected by incubation with biotinylated anti-IL-17A Mab (R & D Systems, cat BAF317) followed by the addition of neutravidin-HRP (Pierce, cat#31030) and TMB substrate (Sigma, cat# T0440). The TMB reaction was stopped by addition of 0.5M H₂SO₄ and absorbances were measured at 450 nm in a plate reader.

[7] = target: T4, recombinant human IL-17RA Fc fusion …; test: IL-17RA ligand inhibition ELISA (FIG. 10B): VH competes with IL-17A for coated IL-17RA-Fc
Description: as §4

[8] = target: T4, recombinant human IL-17RA Fc fusion …; test: receptor/ligand biochemical inhibition ELISA: VH competes with 1 nM IL-17A for coated IL-17RA-Fc; remark: listed apart in the source
Description: as §4

[9] = target: T3, human IL-17RA on HT1080 cells; test: cell-based or functional assay; remark: listed apart in the source
[10] = target: T4, recombinant human IL-17RA Fc fusion …; test: BIAcore T200 single-cycle kinetics, IL-17RA-Fc captured on protein G chip, VH as analyte; remark: listed apart in the source
Description: as §2, §3

B1: VH clone 1.2 (VHH)
VHH: EVQLVESGGGLVQPGRSLRLSCAASGFTFDDYAMHWVRQAPGKGLEWVSGISWNSGRMDYADSVKGRFTISRDNAKNSLYLQMNSLRAEDTALYYCAKEKGLGYCRGGSCSYFDYRGQGTLVTVSS
notes: Human VH single domain antibody, no light chain; Family 1; also called VH 1.2
binding result [1]: no binding | binding result [2]: no binding | IC50 (nM), cell-based assay [3]: 141 nM

B2: VH clone 1.1 (VHH)
VHH: QVQLVESGGGLVQPGRSLRLSCAASGFTFDDYAMHWVRQAPGKGLEWVSGISWNSGRMDYADSVKGRFTISRDNAKKSLYLQMNSLRAEDTAMYYCAKEKGLGFCRGGSCSYFDYRGQGTLVTVSS
notes: Human VH single domain antibody, no light chain; Parent clone of family 1; also called VH 1.1
binding result [1]: no binding | binding result [2]: no binding | Kd [4]: 0.063 nM | IC50 (nM), cell-based assay [3]: 39 nM | Cell assay IC50 [5]: 4.7 nM

B3: VH clone 3.1 (VHH)
VHH: EVQLVESGGGLVQPGGSLRLSCAASGFPFSTYWMRWLRQAPGKGLEWVANINQDGSEKYYVDSVKGRFTISRDNAKSSLFLQMNSLRAEDTAVYYCARGWESGWFEPWGQGTLVTVSS
notes: Human VH single domain antibody, no light chain; Parent clone of family 3; also called VH 3.1
Kd [4]: 9.6 nM | IC50 [6]: 11 nM

B4: VH clone 3.20 (VHH)
VHH: QVQLVESGGGLVQPGGSLRLSCAASGFPFSTYWMRWLRQAPGKGLEWVANIKQDGSEKYYVDSVKGRFTISRDNAKNSLFLQMNSLRAEDTAVYYCARGWESGWFEPWGQGTLVTVSS
notes: Human VH single domain antibody, no light chain; Family 3; also called VH 3.20
IC50 [7]: 22 nM

B5: VH clone 2.3 (VHH)
VHH: QVQLVQSGAEVKKPGASVKVSCKASGYPFTSYDINWVRQATGRSLEWMGWMNPTSGDTVYAQKFQDRVTMTRNTSISTAYMELSSLRSEDTAVYFCARGRRDNWKNNYWGQGTLVTVSS
notes: Human VH single domain antibody, no light chain; Optimised variant of clone 2.1
IC50 [8]: 1.3 nM | Cell assay IC50 [9]: 118 nM | Kd [10]: 2.5 nM | koff [10]: 0.00137 s⁻¹ | kon [10]: 555000 M⁻¹ s⁻¹

B6: VH clone 4.1 (VHH)
VHH: QVQLVQSGAEVKKPGASVKVSCKASGYPFTNYDISWIRQATGQSLEWMGWMNPDSGNTGYAQKFQGRVTMTRNTSISTAYMELSGLRSEDTAVYFCARGGYNAWRTDYWGQGTLVTVSS
notes: Human VH single domain antibody, no light chain; Parent clone of family 4
Kd [4]: 4.5 nM | Cell assay IC50 [5]: 282 nM

B7: VH clone 4.55 (VHH)
VHH: QVQLQQSGAEVKKPGASVKVSCKASGYTFTSYDISWVRQATGQSLEYMGWMNPNSGNTGYAQKFQGRVTMTRNTSISTAYMELSSLRSEDTAVYYCARGGITEWRRDYWGQGTLVTVSS
notes: Human VH single domain antibody, no light chain; Family 4
IC50 [7]: 6930 nM

B8: VH 62A4 (VHH)
VHH: QVQLVESGGGLVQPGRSLTLSCTASGFTFHDYAMHWVRQPPGGGLEWVAGVSWNGNNVGYADSVKGRFTISRDNAKKSLYLQMNSLRSEDTALYYCAKGGMGSGSHPDSFSTWGQGTMVTVSS
notes: VH single domain
binding result [1]: no binding | binding result [2]: no binding

B9: VH clone 7.1 (VHH)
VHH: EVQLVESGGGLVQPGGSLRLSCAASGFTFSNYWMSWVRQARGKGLEWVANIRPDGSERYYVDSVKGRFTISRDNAKNSLYLQMSSLRAEDTAVYYCARSRDWGSRAFDIWGQGTMVTVSS
notes: Human VH single domain antibody, no light chain; Parent clone of family 7
Kd [4]: 370 nM | Cell assay IC50 [5]: 1840 nM

B10: VH clone 6.1 (VHH)
VHH: EVQLVESGGGLVKPGGSLRLSCAASGFTFSDDYMSWLRQAPGKGLEWVSYISSSGSTIYYADSVKGRFTISRDNAKNSLYLQMNSLRAEDSAVYYCARKDITNIAVGSLGYWGQGTLVTVSS
notes: Human VH single domain antibody, no light chain; Parent clone of family 6
Kd [4]: 31 nM | Cell assay IC50 [5]: 233 nM

B11: VH clone 5.1 (VHH)
VHH: EVQLVESGGGLVKPGGSLRLSCEASGFTFSDFDMSWIRQAPGKGLEWVAYISSSDSTIYYRDSVKGRFTISRDNAKNSLYLQMNSLRAEDTAVYYCSRNGARYNWNYGDFQHWGQGTLVTVSS
notes: Human VH single domain antibody, no light chain; Parent clone of family 5
Kd [4]: 41 nM | Cell assay IC50 [5]: 73 nM | IC50 [6]: 80 nM
